B1: COL6A2-G-box-MT (dsDNA)
DNA 1: GGCCCCCTAATAATATCCGCG
DNA 2: GCGGATATTATTAGGGGGCC
B2: COL6A2-G-box-WT (dsDNA)
DNA 1: GGCCCCCTCCTCCCATCCGCG
DNA 2: CGCGGATGGGAGGAGGGGGCC

Tests used:
GST-Snail [1] = molecular target: T1, GST-Snail (UniProt O95863 1-264); assay: competition; unlabeled mutant vs biotinylated WT probe; EMSA: 10 mM Tris pH 7.5, 50 mM KCl, 1 mM DTT, 5 mM MgCl2, 2.5% glycerol, 0.05% NP-40, 50 ng/ul poly(dI.dC), 600 fmol probe, 12 ug GST protein in 20 ul; gel 6% 0.5x TBE 4 C. Pull-down: NeutrAvidin beads, 8 h 4 C, washed in IP buffer (50 mM Tris pH 7.5, 150 mM NaCl, 1% Triton X-100); details: protein: recombinant; tags: N-terminal GST (pGEX-4T-1); 3' overhang 1 nt on strand 1 as printed (reverse strand lacks 5' C)
Flag-p66β [2] = molecular target: T2, Flag-p66β (UniProt Q8WXI9 1-593); assay: as above; details: protein: recombinant; tags: Flag; 3' overhang 1 nt on strand 1 as printed (reverse strand lacks 5' C)
GST-Snail [3] = molecular target: T1, GST-Snail; assay: EMSA; 5 mM Mg2+, poly(dI.dC); EMSA: 10 mM Tris pH 7.5, 50 mM KCl, 1 mM DTT, 5 mM MgCl2, 2.5% glycerol, 0.05% NP-40, 50 ng/ul poly(dI.dC), 600 fmol probe, 12 ug GST protein in 20 ul; gel 6% 0.5x TBE 4 C. Pull-down: NeutrAvidin beads, 8 h 4 C, washed in IP buffer (50 mM Tris pH 7.5, 150 mM NaCl, 1% Triton X-100); details: protein: recombinant; tags: N-terminal GST (pGEX-4T-1); label: biotin (probe); blunt
Flag-p66β [4] = molecular target: T2, Flag-p66β; assay: pull-down; p66β alone; relatively high affinity; EMSA: 10 mM Tris pH 7.5, 50 mM KCl, 1 mM DTT, 5 mM MgCl2, 2.5% glycerol, 0.05% NP-40, 50 ng/ul poly(dI.dC), 600 fmol probe, 12 ug GST protein in 20 ul; gel 6% 0.5x TBE 4 C. Pull-down: NeutrAvidin beads, 8 h 4 C, washed in IP buffer (50 mM Tris pH 7.5, 150 mM NaCl, 1% Triton X-100); details: protein: recombinant; tags: Flag; label: biotin (probe); blunt

T1 sequence (O95863 whole entry): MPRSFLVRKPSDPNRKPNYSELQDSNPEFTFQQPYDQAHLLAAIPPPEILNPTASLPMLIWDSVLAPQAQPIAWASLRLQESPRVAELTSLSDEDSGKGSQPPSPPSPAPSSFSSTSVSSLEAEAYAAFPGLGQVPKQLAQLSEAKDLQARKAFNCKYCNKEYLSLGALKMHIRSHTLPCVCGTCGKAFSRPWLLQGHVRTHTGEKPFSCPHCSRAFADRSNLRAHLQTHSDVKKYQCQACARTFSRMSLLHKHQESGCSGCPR
T2 sequence (Q8WXI9 whole entry): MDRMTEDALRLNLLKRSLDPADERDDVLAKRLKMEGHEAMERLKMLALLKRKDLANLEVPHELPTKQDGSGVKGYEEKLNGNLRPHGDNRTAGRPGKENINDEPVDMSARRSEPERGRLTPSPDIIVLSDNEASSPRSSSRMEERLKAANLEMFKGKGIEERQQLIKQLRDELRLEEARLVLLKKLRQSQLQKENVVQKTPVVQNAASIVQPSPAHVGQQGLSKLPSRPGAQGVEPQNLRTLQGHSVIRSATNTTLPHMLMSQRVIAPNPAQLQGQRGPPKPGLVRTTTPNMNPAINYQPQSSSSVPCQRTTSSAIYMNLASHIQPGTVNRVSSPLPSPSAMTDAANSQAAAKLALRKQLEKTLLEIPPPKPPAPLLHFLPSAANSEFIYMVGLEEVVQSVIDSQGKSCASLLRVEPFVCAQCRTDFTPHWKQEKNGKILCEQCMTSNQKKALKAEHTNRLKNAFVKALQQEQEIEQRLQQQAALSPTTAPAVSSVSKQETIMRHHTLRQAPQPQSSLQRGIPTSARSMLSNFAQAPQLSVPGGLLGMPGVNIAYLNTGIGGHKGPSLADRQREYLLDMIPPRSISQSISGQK

Row | Binder | binding result (GST-Snail [1]) | binding result (Flag-p66β [2]) | binding result (GST-Snail [3]) | binding result (Flag-p66β [4])
1 | B1 | no binding | no binding |  | 
2 | B2 |  |  | binds | binds
